The assay deals with Mono ubiquitin (UniProt P0CG48 1-76). As to the kind of experiment: ITC. Background: ITC needs no label: the signal is the heat of the interaction.

For 1 molecule, Kd results are on record in PMC9065369 (Cell Reports, 2022).

B1: hsHDAC6 (1108-1215) (domain or fragment)
chain: TPLPWCPHLVAVCPIPAAGLDVTQPCGDCGTIQENWVCLSCYQVYCGRYINGHMLQHHGNSGHPLVLSYIDLSAWCYYCQAYVHHQALLDVKNIAHQNKFGEDMPHPH
As a reminder, the Kd is the constant that tells how readily two partners part at equilibrium. Lower therefore signals a tighter complex. On to B1, for which binding was put at a Kd of 5.16 ± 0.47 µM.
